According to paper PMC3185441:

Assays:
Test in all cases: fluorescence protection assay
Thrombin = Thrombin (UniProt P00734;P00734 328-363;364-622)
[1] = target: Carcinoembryonic antigen (CEA) (UniProt P06731 35-685)
alpha-fetoprotein (AFP) = target: T1, alpha-fetoprotein (AFP) (UniProt P02771 19-609)
T1 sequence: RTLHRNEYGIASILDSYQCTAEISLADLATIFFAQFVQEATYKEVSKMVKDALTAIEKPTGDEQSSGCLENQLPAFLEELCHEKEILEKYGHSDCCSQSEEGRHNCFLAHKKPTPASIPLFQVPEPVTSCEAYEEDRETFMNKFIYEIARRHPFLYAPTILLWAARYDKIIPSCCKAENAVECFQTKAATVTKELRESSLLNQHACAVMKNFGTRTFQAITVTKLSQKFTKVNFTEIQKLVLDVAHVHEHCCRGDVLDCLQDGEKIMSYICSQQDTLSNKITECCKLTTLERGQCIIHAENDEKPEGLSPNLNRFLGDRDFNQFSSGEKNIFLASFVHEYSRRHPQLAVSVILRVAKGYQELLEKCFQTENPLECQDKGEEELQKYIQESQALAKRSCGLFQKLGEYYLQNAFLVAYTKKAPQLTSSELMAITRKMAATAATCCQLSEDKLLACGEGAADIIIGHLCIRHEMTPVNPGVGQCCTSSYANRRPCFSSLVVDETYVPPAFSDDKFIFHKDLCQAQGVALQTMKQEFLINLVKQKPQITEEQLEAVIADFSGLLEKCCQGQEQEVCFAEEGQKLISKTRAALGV

Measured: binding result

Sequence of Carcinoembryonic antigen (CEA) (P06731 35-685): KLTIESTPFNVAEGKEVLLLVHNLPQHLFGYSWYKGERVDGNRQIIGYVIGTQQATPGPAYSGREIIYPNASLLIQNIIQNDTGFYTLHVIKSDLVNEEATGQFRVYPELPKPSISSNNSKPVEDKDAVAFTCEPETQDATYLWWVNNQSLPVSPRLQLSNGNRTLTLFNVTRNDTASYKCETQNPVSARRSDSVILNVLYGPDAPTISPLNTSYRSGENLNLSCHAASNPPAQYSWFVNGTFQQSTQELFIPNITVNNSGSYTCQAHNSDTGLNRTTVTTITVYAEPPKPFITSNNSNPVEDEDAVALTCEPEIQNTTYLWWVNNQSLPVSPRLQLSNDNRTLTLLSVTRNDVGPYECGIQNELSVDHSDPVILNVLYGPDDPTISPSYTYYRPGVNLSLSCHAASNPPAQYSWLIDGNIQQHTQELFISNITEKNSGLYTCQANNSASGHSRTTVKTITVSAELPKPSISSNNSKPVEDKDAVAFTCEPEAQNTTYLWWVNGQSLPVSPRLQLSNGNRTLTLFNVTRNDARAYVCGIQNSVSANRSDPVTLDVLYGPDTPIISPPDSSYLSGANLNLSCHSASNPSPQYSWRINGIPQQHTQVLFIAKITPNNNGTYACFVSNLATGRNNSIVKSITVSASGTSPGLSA

B1: IgE aptamer, FITC at Site 1 (structured_DNA)
DNA: GCGCGGGGCACGTTTATCCGTCCCTCCTAGTGGCGTGCCCCGCGC
modifications: FITC-modified T at Site 1 (position only in Fig 2A)
no binding: all assays above
